Molecular target: the molecule itself
Assay: cryo-EM structure

B1: Chikungunya virus non-structural protein 1 (nsP1) (enzyme)
chain: MDPVYVDIDADSAFLKALQRAYPMFEVEPRQVTPNDHANARAFSHLAIKLIEQEIDPDSTILDIGSAPARRMMSDRKYHCVCPMRSAEDPERLANYARKLASAAGKVLDRNISGKIGDLQAVMAVPDTETPTFCLHTDVSCRQRADVAIYQDVYAVHAPTSLYHQAIKGVRLAYWVGFDTTPFMYNAMAGAYPSYSTNWADEQVLKAKNIGLCSTDLTEGRRGKLSIMRGKKLEPCDRVLFSVGSTLYPESRKLLKSWHLPSVFHLKGKLSFTCRCDTVVSCEGYVVKRITMSPGLYGKTTGYAVTHHADGFLMCKTTDTVDGERVSFSVCTYVPATICDQMTGILATEVTPEDAQKLLVGLNQRIVVNGRTQRNTNTMKNYMIPVVAQAFSKWAKECRKDMEDEKLLGVRERTLTCCCLWAFKKQKTHTVYKRPDTQSIQKVQAEFDSFVVPSLWSSGLSIPLRTRIKWLLSKVPKTDLTPYSGDAQEARDAEKEAEEEREAELTLEALPPLQAAQEDVQVEIDVEQLEDRAGA
In the case of B1, the “stoichiometry N” value is reported as 12.

From paper doi:10.1101/2022.08.13.503841 (bioRxiv, 2022)
